No end group written: not given here.

One experiment deals with T1, human GIPR (human, UniProt P48546 22-466).
T1 construct: on CHOK1-human GIPR cells
T1 sequence: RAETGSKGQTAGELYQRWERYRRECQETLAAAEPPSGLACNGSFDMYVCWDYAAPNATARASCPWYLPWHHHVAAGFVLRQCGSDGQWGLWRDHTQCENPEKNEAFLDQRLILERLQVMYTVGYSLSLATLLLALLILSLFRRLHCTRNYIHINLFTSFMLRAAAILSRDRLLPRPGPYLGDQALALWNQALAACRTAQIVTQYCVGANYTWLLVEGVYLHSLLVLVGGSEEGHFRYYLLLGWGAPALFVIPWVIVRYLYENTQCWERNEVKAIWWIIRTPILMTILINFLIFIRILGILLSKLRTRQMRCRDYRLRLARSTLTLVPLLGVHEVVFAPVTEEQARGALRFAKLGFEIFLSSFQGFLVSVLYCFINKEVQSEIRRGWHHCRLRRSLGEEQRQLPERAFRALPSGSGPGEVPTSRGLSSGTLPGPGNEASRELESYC
The experiment is described as follows: FACS, CHOK1-human GIPR cells. From the text:
(§1) To determine whether the GPRC5D/CD3 bispecific antibodies of the present disclosure cross-bind to the GPCRA and GPCRB family members, a flow cytometry assay was used in this test example to measure the capacity of the GPRC5D/CD3 bispecific antibodies to bind to CHOK1-human CCR8 cells expressing CCR8 (the GPCR A family) (constructed with reference to Example 2) and CHOK1-human GIPR cells expressing human GIPR (the GPCR B family) (constructed with reference to Example 2). The specific procedure was as follows: The cells described above were cultured in DMEF/12K culture medium containing 10% FBS, incubated in a 37° C., 5% CO₂ incubator for 2 days, and added to a cell plate at 1×10⁵ cells/well. The plate was centrifuged at 300 g for 5 min and washed once with 1% BSA. The antibodies were serially diluted to 8 concentrations and added to the cell plate at 100 μL/well. The plate was incubated at 4° C. for 1 h and washed once with 1% BSA. […] The plate was washed three times with 1% BSA, PBS was added at 100 μL/well, and plate reading was performed.
On the technique in general: In flow cytometry, cells or beads pass a laser one at a time.

Another experiment addresses T2, human CCR8 (human, UniProt P51685 1-355).
T2 construct: on CHOK1-human CCR8 cells
Kind of experiment: FACS, CHOK1-human CCR8 cells.
Description: as §1

The target in experiment [1] is T3, E2 peptide of human GPRC5D (human, also: biotinylated, site not given here, made with and without intramolecular disulfide bonds).
T3 peptide: NQQTAPVRYC
Kind of experiment: peptide ELISA; note: - indicates no detectable binding. The text has this: (§2) To determine the epitope of GPRC5D to which the GPRC5D/CD3 bispecific antibodies of the present disclosure bind, 4 extracellular domain peptides of human GPRC5D were synthesized, including an amino-terminal peptide (N-terminal peptide), an E2 peptide, an E3 peptide, and an E4 peptide (synthesized by GenScript). The peptides were biotinylated and made into two forms: one lacked intramolecular disulfide bonds and the other included intramolecular disulfide bonds. An Elisa plate (Corning 3590) was coated with streptavidin (sigma, SA101), left to stand at 37° C. for 2 h, and then washed. The non-specific binding sites were blocked with PBS containing 5% skim milk, and the plate was left to stand at 37° C. for 2 h and then washed. The peptides, diluted in PBS containing 1% BSA, were added at 100 μL/well, and the plate was left to stand at 37° C. for 1 h and then washed. Subsequently, the GPRC5D/CD3 antibodies, diluted in PBS containing 1% BSA to 0.003 nM-300 nM, were added at 100 μL/well, and the plate was left to stand at 37° C. for 1 h and then washed. […] TMB (KPL, 5120-0077) was added at 100 μL/well. After 5 min of color development, 1 M H₂SO₄ was added to stop the reaction, and the OD₄₅₀ was measured.
A general note: An ELISA detects its analyte on a solid surface through an enzyme-linked reagent.

Experiment [2] addresses T4, E3 peptide of human GPRC5D (human, biotinylated; made with and without intramolecular disulfide bonds).
T4 peptide: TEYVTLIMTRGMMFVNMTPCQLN
The description is as above.
Description: as §2

The target of experiment [3] is T5, E4 peptide of human GPRC5D (human, also: biotinylated, site not given here, made with and without intramolecular disulfide bonds).
T5 peptide: RGNPQFQRQPQWDDC
Described as above.
Description: as §2

A further experiment has as its target human GPRC5D (human, UniProt Q9NZD1 1-345). Kind of experiment: cell-based or functional assay.
Experiment [4] concerns the target T6, N-terminal peptide of human GPRC5D (human, biotinylated; made with and without intramolecular disulfide bonds).
T6 construct: synthesized by GenScript; captured on streptavidin; also called amino-terminal peptide
T6 peptide: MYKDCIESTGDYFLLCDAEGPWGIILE
Kind of experiment: ELISA, biotinylated peptide on streptavidin.
Description: as §2

B1: F2-0G4S-1 (bispecific antibody)
heavy 1: not shown
light 1: DVVMTQTPLSLSVTPGQPASISCRSSQSLVHSQGNTYLYWYLQKPGQSPKLLIYKVSNRFSGVPDRFSGSGSGTDFTLKISRVEAEDVGVYYCSQSTHVPPLTFGQGTKLEIKRTVAAPSVFIFPPSDEQLKSGTASVVCLLNNFYPREAKVQWKVDNALQSGNSQESVTEQDSKDSTYSLSSTLTLSKADYEKHKVYACEVTHQGLSSPVTKSFNRGEC
heavy 2: not shown
light 2: not shown
notes: formula 2-0G4S
For orientation: EC50 means the concentration giving half of the maximal effect. The low end stands for a more potent agent, the high end for a less potent agent. Consider B1, for which the binding result is “no binding” in the experiment with human GIPR; “no binding” with human CCR8; “no binding (tested: 0.003 nM-300 nM)” in experiment [1]; “no binding (tested: 0.003 nM-300 nM)” in experiment [2]; “no binding (tested: 0.003 nM-300 nM)” in experiment [3]. For the same molecule, in the experiment with human GPRC5D, the “EC50 ratio (relative to JNJ-64407564), cytotoxic activity against NCI-H929” value is 0.57. Further, the “Lysis rate %, cytotoxic activity against NCI-H929” value in the experiment with human GPRC5D turned out to be 91.5%. Moreover, the concentration giving a half-maximal response (EC50) in experiment [4] is 0.392 nM.

B2: F4-0G4S-1 (bispecific antibody)
heavy 1: not shown
light 1: not shown
heavy 2: EVQLVQSGAEVKKPGASVKVSCKVSGYTFTDYPIHWMRQAPGQGLEWMGYVFPRDGSTKYNEKFRVRVTWTADKSTSTVYMELSSLRSEDTAVYYCSRELTAYWGQGTTVTVSSASTKGPSVFPLAPSSKSTSGGTAALGCLVKDYFPEPVTVSWNSGALTSGVHTFPAVLQSSGLYSLSSVVTVPSSSLGTQTYICNVNHKPSNTKVDKKVEPKSCDKTHTCPPCPAPEAAGGPSVFLFPPKPKDTLMISRTPEVTCVVVDVSHEDPEVKFNWYVDGVEVHNAKTKPREEQYNSTYRVVSVLTVLHQDWLNGKEYKCKVSNKALPAPIEKTISKAKGQPREPQVCTLPPSRDELTKNQVSLSCAVKGFYPSDIAVEWESNGQPENNYKTTPPVLDSDGSFFLVSKLTVDKSRWQQGNVFSCSVMHEALHNHYTQKSLSLSPGK
light 2: DVVLTQSPLSLPVTLGQPASISCKSSQSLLHSSGKTYLNWLLQRPGQSPRRLIYLVSKLDSGVPDRFSGSGSGTDFTLKISRVEAEDVGVYYCAQGTHFPRTFGGGTKVEIKRTVAAPSVFIFPPSDEQLKSGTASVVCLLNNFYPREAKVQWKVDNALQSGNSQESVTEQDSKDSTYSLSSTLTLSKADYEKHKVYACEVTHQGLSSPVTKSFNRGEC
notes: formula 4-0G4S
Regarding B2, the binding result was “no binding” with human GIPR; “no binding” with human CCR8; “no binding (tested: 0.003 nM-300 nM)” in experiment [1]; “no binding (tested: 0.003 nM-300 nM)” in experiment [2]; “no binding (tested: 0.003 nM-300 nM)” in experiment [3]. Further, the “EC50 ratio (relative to JNJ-64407564), cytotoxic activity against NCI-H929” value with human GPRC5D was 0.09. Further, in the experiment with human GPRC5D, the “Lysis rate %, cytotoxic activity against NCI-H929” value was determined as 136%. In experiment [4], the EC50 stood at 0.597 nM.

(Values after patent US20250215083A1 (JIANGSU HENGRUI PHARMACEUTICALS, published 2025).)
